Test results taken from US20210380679A1 (INHIBRX BIOSCIENCES, published 2021).

Tests used:
[1] = biological target: T1, human DLL3 (Delta-like ligand 3) (human, UniProt Q9NYJ7 27-618); experiment: flow cytometry of secreted sdAb-Fc on SHP-77 cells
T1 construct: endogenous on SHP-77 cells; also called cell-surface DLL3
T1 sequence: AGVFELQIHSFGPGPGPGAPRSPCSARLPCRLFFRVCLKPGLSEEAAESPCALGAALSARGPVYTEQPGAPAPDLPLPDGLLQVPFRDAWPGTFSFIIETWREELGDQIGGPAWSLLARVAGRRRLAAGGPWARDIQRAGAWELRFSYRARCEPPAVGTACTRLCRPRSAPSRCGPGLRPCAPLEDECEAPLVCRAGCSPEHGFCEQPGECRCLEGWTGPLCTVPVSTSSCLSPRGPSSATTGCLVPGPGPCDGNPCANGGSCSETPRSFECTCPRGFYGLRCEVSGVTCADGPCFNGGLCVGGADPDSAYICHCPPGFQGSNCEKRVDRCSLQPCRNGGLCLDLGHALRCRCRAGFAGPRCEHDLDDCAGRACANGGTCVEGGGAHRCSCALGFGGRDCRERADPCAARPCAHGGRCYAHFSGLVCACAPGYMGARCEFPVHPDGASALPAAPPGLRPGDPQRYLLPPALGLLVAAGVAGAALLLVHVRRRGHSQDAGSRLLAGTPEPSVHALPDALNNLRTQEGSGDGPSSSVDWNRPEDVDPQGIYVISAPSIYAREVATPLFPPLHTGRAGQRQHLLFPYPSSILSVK

[2] = biological target: T1, human DLL3 (Delta-like ligand 3); experiment: flow cytometry, construct titrated on SHP-77 cells (DLL3 positive), fluorophore-conjugated anti-human IgG Fc secondary
Experimental: (§1) Binding of exemplary multispecific polypeptide constructs of the disclosure containing an antigen-binding domain directed against DLL3 to CD3 on the surface of primary T cells and to DLL3 expressing cells (SHP-77) was assessed by flow cytometry. […] These binding assays were conducted by flow cytometry, wherein bound constructs were detected using a fluorophore-conjugated anti-human IgG Fc secondary antibody.

[3] = biological target: T2, CD3 on the surface of T cells (human, UniProt P07766 23-207); experiment: flow cytometry, construct titrated on isolated primary T cells, fluorophore-conjugated anti-human IgG Fc secondary
T2 construct: whole, on cells; multi-chain complex; also called CD3 epsilon
Experimental: as §1

T2 sequence (P07766 23-207): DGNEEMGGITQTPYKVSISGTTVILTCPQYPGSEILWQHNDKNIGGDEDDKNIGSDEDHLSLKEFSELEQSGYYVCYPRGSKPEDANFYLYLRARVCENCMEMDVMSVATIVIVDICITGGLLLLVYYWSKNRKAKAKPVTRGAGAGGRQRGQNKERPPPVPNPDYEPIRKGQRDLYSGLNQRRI

B1: 6A1 (Fc fusion)
VHH: QVQLVQSGGGLVQAGGSLRLSCAASGFSLDDYTIGWFRQAPGKEREGVSCISSSGGSTVHADSVKGRFTISRDNAKNTVWLQMNSLKPEDTAVYYCATWCGVATMTEDLPFDYWGQGTLVTVKP
notes: tested as VHH-human Fc; Fc not specified
[1]
  binding result: binds

B2: cx5352 (bispecific antibody)
chain 1: EVQLVESGGGEVQPGGSLRLSCAASGSIFSINAMGWYRQAPGKQRELVAGFTGDTNTIYAESVKGRFTISRDNAKNTVYLQMSSLRAEDTAVYYCAADVQLFSRDYEFYWGQGTLVTVKPDKTHTCPPCPAPGGPSVFLFPPKPKDTLMISRTPEVTCVVVDVSHEDPEVKFNWYVDGVEVHNAKTKPREEQYNSTYRVVSVLTVLHQDWLNGKEYKCKVSNKALPAPIEKTISKAKGQPREPQVYTLPPCRDELTKNQVSLWCLVKGFYPSDIAVEWESNGQPENNYKTTPPVLDSDGSFFLYSKLTVDKSRWQQGNVFSCSVMHEALHNHYTQKSLSLSPTGGGGGSGGGGGSGGGGGSEVQLVESGGGLVQPGGSLRLSCAASGFTFNTYAMNWVRQAPGKCLEWVARIRSKYNNYATYYADSVKGRFTISRDDAKNTLYLQMSSLRAEDTAVYYCVRHGNFGNSYVSWFAYWGQGTLVTVKPEVQLVESGGGEVQPGGSLRLSCGPSEIITSDKSMGWVRQAPGKQRNLVAGISNVGSTNYAQSVKGRFTISRDNAKNTVYLQMSSLRAEDTAVYYCYARDFENEYWGQGTLVTVKP
chain 2: DKTHTCPPCPAPGGPSVFLFPPKPKDTLMISRTPEVTCVVVDVSHEDPEVKFNWYVDGVEVHNAKTKPREEQYNSTYRVVSVLTVLHQDWLNGKEYKCKVSNKALPAPIEKTISKAKGQPREPQVCTLPPSRDELTKNQVSLSCAVKGFYPSDIAVEWESNGQPENNYKTTPPVLDSDGSFFLVSKLTVDKSRWQQGNVFSCSVMHEALHNRYTQKSLSLSPTGGGGGSGGGGGSGGGGGSQAVVTQEPSLTVSPGGTVTLTCGSSTGAVTTSNYANWVQQKPGQAFRGLIGGTNKRAPGVPARFSGSLLGGKAALTISGAQPEDEADYYCALWYSNHWVFGCGTKLEIKEVQLLESGGGEVQPGGSLRLSCAASGFSFSINAMGWYRQAPGKRREFVAAIESGRNTVYAESVKGRFTISRDNAKNTVYLQMSSLRAEDTAVYYCGLLKGNRVVSPSVAYWGQGTLVTVKP
[2]
  binding result: binds
[3]
  binding result: no binding (tested: about 67 nM)

B3: cx5800 (bispecific antibody)
chain 1: EVQLVESGGGEVQPGGSLRLSCAASGSIFSINAMGWYRQAPGKQRELVAGFTGDTNTIYAESVKGRFTISRDNAKNTVYLQMSSLRAEDTAVYYCAADVQLFSRDYEFYWGQGTLVTVKPDKTHTCPPCPAPGGPSVFLFPPKPKDTLMISRTPEVTCVVVDVSHEDPEVKFNWYVDGVEVHNAKTKPREEQYNSTYRVVSVLTVLHQDWLNGKEYKCKVSNKALPAPIEKTISKAKGQPREPQVYTLPPCRDELTKNQVSLWCLVKGFYPSDIAVEWESNGQPENNYKTTPPVLDSDGSFFLYSKLTVDKSRWQQGNVFSCSVMHEALHNHYTQKSLSLSPTGGGGGSGGGGGSGGGGGSEVQLVESGGGLVQPGGSLRLSCAASGFTFNTYAMNWVRQAPGKCLEWVARIRSKYNNYATYYADSVKGRFTISRDDAKNTLYLQMSSLRAEDTAVYYCVRHGNFGNSYVSWFAYWGQGTLVTVKP
chain 2: B2 chain 2
notes: monovalent for DLL3; junction linkers not placed
[2]
  binding result: binds
[3]
  binding result: no binding (tested: about 67 nM)

B4: cx5801 (bispecific antibody)
chain 1: DKTHTCPPCPAPGGPSVFLFPPKPKDTLMISRTPEVTCVVVDVSHEDPEVKFNWYVDGVEVHNAKTKPREEQYNSTYRVVSVLTVLHQDWLNGKEYKCKVSNKALPAPIEKTISKAKGQPREPQVYTLPPCRDELTKNQVSLWCLVKGFYPSDIAVEWESNGQPENNYKTTPPVLDSDGSFFLYSKLTVDKSRWQQGNVFSCSVMHEALHNHYTQKSLSLSPTGGGGGSGGGGGSGGGGGSEVQLVESGGGLVQPGGSLRLSCAASGFTFNTYAMNWVRQAPGKCLEWVARIRSKYNNYATYYADSVKGRFTISRDDAKNTLYLQMSSLRAEDTAVYYCVRHGNFGNSYVSWFAYWGQGTLVTVKPEVQLVESGGGEVQPGGSLRLSCGPSEIITSDKSMGWVRQAPGKQRNLVAGISNVGSTNYAQSVKGRFTISRDNAKNTVYLQMSSLRAEDTAVYYCYARDFENEYWGQGTLVTVKP
chain 2: B2 chain 2
notes: as for B3
[2]
  binding result: binds
[3]
  binding result: no binding (tested: about 67 nM)
